Test results from patent US9395368B2, “Methods, agents and peptides for inducing an immune response to matrix metalloproteinase-2 expressing tumors” (New York University, priority 2010, dated 2016).

Experiments:
IFNAR1 = IFNAR1 protein expression in DCs (Western blot); assay type: cell-based, human; settings: n=7 donors
Description: Immature DCs were incubated with MMP-2 (0.5 μg/mL or 5 μg/mL) and poly(I:C)-matured 1 h later. IL-12 levels were measured 16 h later. (A) Results are represented as a percentage of IL-12p70 levels, measured by CBA, produced when DCs were incubated with poly(I:C) only (n=11). (B) For intracellular staining of IL-12p35 and IL-12p40 chains, Brefeldin A was added 4 h after poly(I:C) activation and cells were stained after an additional 12 h incubation. Numbers in the upper right quadrants are the percentages of each population for a representative donor (n=3). (C,D) Immature DCs were incubated with MMP-2 for 1 h (5 μg/mL) before poly(I:C) maturation. Intracellular staining of phosphorylated (Y701) STAT1 (P-STAT1) was performed 3 h later. A representative donor (C) and results for all 3 donors (D) are shown. […] (E) Immature DCs were incubated with MMP-2 and poly(I:C)-matured 1 h later. IFNβ levels were measured by ELISA 16 h later. Results are represented as a percentage of IFNβ levels produced when DCs were incubated with poly(I:C) only (n=9). (F,G) 10^6DCs/lane were treated with 0.1 μg MMP-2 or controls. Poly(I:C) was added 1 h later. IFNAR1 protein expression was detected the next day by Western blot analysis using a rabbit monoclonal antibody. […]
Western blots IFNAR1 and β-actin were detected by Western blot analysis using rabbit and mouse mAbs, respectively. […]

[1] = system: CD4+ T cells from healthy donors; assay: CD4+ T cells stimulated with autologous DCs loaded with whole MMP-2 protein, response to peptide pool; assay type: cell-based, human; settings: DCs incubated with MMP-2 protein (10 μM), 12 days
Description: (A) MMP-2-specific CD4^+ T cell clones were generated and characterized as described in Experimental Procedures. Clone HD9828/52 is shown as a representative example. Epitope specificities were assessed after overnight stimulation with individual peptides (2 μM). IFNγ, TNFα and IL-4 release was measured by ELISA. (B) All MMP-2-specific CD4^+ T cell clones were characterized by staining for CD4, CD8 and TCR Vβ chain expression. Clone HD9828/52 is shown as a representative example. (C) To establish HLA class-II isotype restriction, CD4^+ T cell clones were stimulated by corresponding peptides in the absence or presence of blocking mAb (10 μg/mL) for HLA-DP, HLA-DQ or HLA-DR and IFNγ release was measured by ELISA. (D) Purified CD4^+/CD25^− cells were stimulated for 12 days by autologous DCs incubated with MMP-2 protein (10 μM) and subsequently washed. MMP-2-specific CD4^+ T cells were detected by intracellular staining of IFNγ, TNFα and IL-4 after 6 hours of stimulation with MMP-2 peptide pool (2 μM). Numbers in the upper right quadrants are the percentages of each population.
T Cell culture, stimulation and priming. Peripheral blood mononuclear cells (PBMCs) were purified from healthy donor-(HD) or cord blood donor-(CB) derived buffy coats (New York Blood Center) by Ficoll-Paque Plus (GE Healthcare) centrifugation. CD4^+/CD25^− cells were enriched (>90%) by magnetic cell sorting (Miltenyi Biotec) and primed/stimulated for 12-15 days either with irradiated (35Gy) autologous CD4^− cells or with autologous mature DCs in IMDM (GIBCO) supplemented with 1 mM HEPES (Life Technologies), 2 mM L-glutamine (Sigma), […] (Sigma) and 5% heat inactivated pooled human serum (PHS; Valley Biomedical) in the presence of rhIL-2 (10 UI/mL) and IL7 (5 ng/mL) (R&D Systems). Antigen presenting cells (CD4^− cells or DCs) were loaded either with peptides (2 μM) or with the MMP-2 protein (10 μg/mL) for 2 and 5 h, respectively. DCs were matured using the TLR3 agonist poly(I:C) at 5 μg/mL/10^6 DCs (Amersham). To generate T cell clones, we originally relied on our published methodology (Godefroy et al., 2006; Godefroy et al., 2007; the entire contents of each of which is incorporated herein by reference), involving enrichment of IFNγ-secreting cells upon short-term culture and peptide stimulation to generate MMP-2 responsive clones. Briefly, CD4^+ T cells were stimulated by CD4^− cells irradiated and pulsed with peptides for 12 days in the presence of rhIL-2 and rhIL-7. CD4^+ T cells were then restimulated with peptides for 3 hours before capturing IFNγ-secreting specific cells using a bispecific antibody coating T cells and capturing produced IFNγ. […]
Intracellular staining T-bet and GATA-3 expression was measured on resting T cells. […]

B1: active MMP-2: Purified human MMP-2 (mixture of the proenzyme (50%) and the active form (50%)) purchased from Biomol (protein, listed as Homo sapiens)
chain: MEALMARGALTGPLRALCLLGCLLSHAAAAPSPIIKFPGDVAPKTDKELAVQYLNTFYGCPKESCNLFVLKDTLKKMQKFFGLPQTGDLDQNTIETMRKPRCGNPDVANYNFFPRKPKWDKNQITYRIIGYTPDLDPETVDDAFARAFQVWSDVTPLRFSRIHDGEADIMINFGRWEHGDGYPFDGKDGLLAHAFAPGTGVGGDSHFDDDELWTLGEGQVVRVKYGNADGEYCKFPFLFNGKEYNSCTDTGRSDGFLWCSTTYNFEKDGKYGFCPHEALFTMGGNAEGQPCKFPFRFQGTSYDSCTTEGRTDGYRWCGTTEDYDRDKKYGFCPETAMSTVGGNSEGAPCVFPFTFLGNKYESCTSAGRSDGKMWCATTANYDDDRKWGFCPDQGYSLFLVAAHEFGHAMGLEHSQDPGALMAPIYTYTKNFRLSQDDIKGIQELYGASPDIDLGTGPTPTLGPVTPEICKQDIVFDGIAQIRGEIFFFKDRFIWRTVTPRDKPMGPLLVATFWPELPEKIDAVYEAPQEEKAVFFAGNEYWIYSASTLERGYPKPLTSLGLPPDVQRVDAAFNWSKNKKTYIFAGDKFWRYNEVKKKMDPGFPKLIADAWNAIPDNLDAVVDLQGGGHSYFFKGAYYLKLENQSLKSVKFGSIKSDWLGC
expression of IFNAR1 chain on DCs (IFNAR1): drastically lost expression
cells secreting IFNγ ([1]; donor HD6026): 0.12%
cells secreting IL-4 ([1]; donor HD6026): 0.73%
cells secreting IFNγ ([1]; donor HD6028): 0.17%
cells secreting IL-4 ([1]; donor HD6028): 1.99%
